Assay results reported in US20080305111A1, “Anti-C35 antibodies for treating cancer” (VACCINEX, INC., priority 2006, published 2008).
“Also recorded” adds a separate entry of the source.

T1: recombinant human C35 (rhC35) (Homo sapiens, UniProt Q9BRT3)
T1 construct: made in house; host or cells: E. coli
T1 sequence (Q9BRT3 1-115): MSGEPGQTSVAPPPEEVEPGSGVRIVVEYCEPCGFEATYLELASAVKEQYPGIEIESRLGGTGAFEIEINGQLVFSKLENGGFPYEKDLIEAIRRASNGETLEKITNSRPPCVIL

T2: C35 (Homo sapiens, UniProt Q9BRT3)
T2 sequence (Q9BRT3 1-115): T1 sequence (Q9BRT3 1-115)

T3: rC35 (Homo sapiens, UniProt Q9BRT3)
T3 construct: made in house; host or cells: E. coli
T3 sequence (Q9BRT3 1-115): T1 sequence (Q9BRT3 1-115)

B1: 1F2: mouse monoclonal anti-C35 antibody from hybridoma 1F2.4.1, gamma1 isotype, kappa light chain (SEQ ID NO:4, 6) (antibody, V domains shown)
VH: DVQLQESGPGLVKPSQSLSLTCSVTGYSITSGYFWNWIRQFPGNKLEWMGYISYDGSNNSNPSLKNRISFTRDTSKNQFFLKFNSVTTDDSAAYYCTRGTTGFAYWGQGTLVTVSA
VL: QIVLTQSPAIMSASPGEKVTISCSASSSVSYMNWYQQKPGSSPKPWIYHTSNLASGVPARFSGSGSGTSYSLTISSMEAEDAATYYCQQYHSYPPTFGGGTKLEIK
B2: MAb 163: fully human C35-specific antibody; VH from clone H730 (SEQ ID NO:62), VL from clone L74 (SEQ ID NO:66) (antibody, V domains shown)
VH: EVQLVESGGGLVKPGGSLRLSCEVSGITFSNAWMSWVRQAPGKGLEWVGRIKSKTDGGTTDYAAPVKGRFTISRDDSKNTLYLQMNSLKTEDTAVYYCSIGYYYDSSFKYGMDVWGQGTTVTVSS
VL: DIQMTQSPATLSASVGDRVTITCRASQSISRWLAWYQQKPGQAPKVLIYKASTLQSGVPSRFSGSGSGTEFSLTINSLQPDDFATYYCQQYYSYLRTFGQGTKLEIK
modifications: VH of MAb163 (H730); VL of MAb163 (L74)
B3: 1B3: mouse monoclonal anti-C35 antibody from hybridoma 1B3.6.1, gamma1 isotype, kappa light chain (SEQ ID NO:8, 10) (antibody, V domains shown)
VH: EVQLQESGPSLVKPSQTLSLTCSVTGDSITSGYWNWIRKFPGNKLEYVGYISYSGGTYYNPSLKSRISITRDTSKNHYYLQLNSVTTEDTATYYCARGAYYGGAFFPYFDVWGAGTTVTVSS
VL: DVQITQSPSFLAASPGETITINCRASKYISKHLVWYQEKPGETKKLLIYSGSTLQSGLPSRFSGSGSGTDFTLTISSLEPEDFAMYYCQQHNEYPLTFGAGTKLELK

Key:
[1] = target: T1, recombinant human C35 (rhC35); assay: Epitope mapping by Lys-C digestion of rhC35 and Western blot; format: binding; conditions: residues numbered from amino terminal methionine of native human C35
Source text: To localize the epitope specificity of 1B3 and 1F2 antibodies, recombinant human C35 (rhC35) synthesized with a 6×His tag in E. coli was digested with Lys-C endoproteinase. This enzyme cuts after lysine (K) residues in the protein sequence. […] The full sequence of rhC35, including the amino terminal 6×His tag addition is shown. Amino acid positions are numbered relative to the amino terminal methionine (M) of the native human sequence. Note that digestion at the first and third lysine followed by negatively charged residues is inefficient and some longer combination fragments may be generated. Lys-C endoproteinase was added to purified rhC35 at a 50:1 weight ratio and incubated for 18 hours at 37° C. in 25 mM Tris, pH 8.0. The digest was ethanol precipitated and resolubilized in reducing Tricine sample buffer. […] Peptides were transferred to PVDF membranes and the blots depicted in FIG. 10 were either stained with Coomassie blue (lanes 1-3 of both left and right panels) to detect all peptides or processed with one of the following: 1 μg/ml of the murine 1F2 anti-C35 antibody followed by alkaline phosphatase conjugated goat anti-mouse antibody (lane 4 of left panel); 1 μg/ml of the 1B3 anti-C35 immunoglobulin variable regions linked to human constant regions (MAb11) followed by alkaline phosphatase conjugated goat anti-human antibody (lane 5 of left panel); or anti-6×His tag mouse antibody (Amersham) followed by alkaline phosphatase conjugated goat anti-mouse antibody (lane 4 and 5 of right panel). BCIP/NBT substrate was added and developed to detect the secondary reagents. Molecular weight markers are indicated in the flanking lanes of both panels.
In FIG. 10, the indicated band A migrates at the position of undigested rhC35. Note that band B stains with 1F2 but not MAb11 (1B3) anti-C35 antibody while band C stains with neither 1F2 nor MAb11 (1B3) antibody. Since bands B and C both do stain with anti-6×His tag antibody to the 6×His tag at the amino terminus of rhC35, it may be concluded that both fragments lack C-terminal peptide fragments. […]

[2] = system: C35-positive MDA231 tumor cells; assay: Two C35 antibodies and paclitaxel in MDA231 xenograft (FIG. 12); format: in vivo, Swiss nude mice; conditions: antibody 20 mg/kg i.v. twice weekly for three weeks, paclitaxel 30 mg/kg i.p. days 17 and 24
Procedure: As illustrated in FIG. 12 and described in this example, methods of treating cancer directed to the administration of two C35 antibodies in combination with a chemotherapeutic agent were tested. Five million C35-positive MDA231 tumor cells were implanted subcutaneously in the mammary fat pads of Swiss nude mice. Groups of at least five mice each received the following treatments, beginning on day 17 post-graft: • 1. No Treatment (Control Group) • 2. 30 mg/kg i.p. injection of paclitaxel on days 17 and 24. • 3. 30 mg/kg i.p. injection of paclitaxel on days 17 and 24, together with 400 μg per i.v. injection (20 mg/kg) of 1F2 murine monoclonal antibody starting on day 17 and continuing twice weekly for three weeks. • 4. 30 mg/kg i.p. injection of paclitaxel on days 17 and 24, together with 400 μg per i.v. injection (20 mg/kg) of […] murine monoclonal antibody starting on day 17 and continuing twice weekly for three weeks. • 5. […]
Average mouse tumor volume was measured at various time points post-graft. Two measurements were taken with vernier calipers on each tumor; tumor volume was calculated using the formula (length×width^2)/2. […]

[3] = target: T2, C35; assay: Characterisation of hybridoma antibodies (ELISA, Western blot, immunohistochemistry, competitive binding ELISA); conditions: for binding to recombinant C35 protein: ELISA and Western Blot
Procedure: Hybridoma cell lines 1F2.4.1 and 1B3.6.1, specific for C35 polypeptides, were prepared using hybridoma technology. (Kohler et al., Nature 256:495 (1975); Kohler et al., Eur. J. Immunol. 6:511 (1976); Kohler et al., Eur. J. Immunol. 6:292 (1976); Hammerling et al., in: Monoclonal Antibodies and T-Cell Hybridomas, Elsevier, N.Y., pp. 571-681 (1981)). Briefly, hybridoma cell lines were generated using standard PEG fusion to the non-secreting myeloma cell line NS-1 (P3/NS1/1-AG4-1, ATCC #TIB-18) of splenocytes from BALB/c mice immunized with syngeneic BCA34 fibroblast tumor cells transduced to over express C35. Following PEG fusion to NS-1, the hybridomas were grown in methylcellulose semi-solid media. Approximately 2 weeks later, hybridoma colonies were isolated into 96 well plates and individual supernatants were tested for reactivity with C35 by ELISA, Western blot, and immunohistochemistry. Positive hybridoma colonies were subcloned and screened for reactivity twice to ensure clonality. Antibodies were isolated from hybridoma supernatants by protein G affinity purification using standard methods. […] In addition, the present inventors developed intracellular staining flow cytometry assays for quantitative analysis using antibodies from hybridoma cell line 1F2 conjugated to Alexa-647 fluorochrome. Each of these antibodies is distinct, yet both are specific for C35 protein. It is possible to immunoprecipitate C35 protein from cell lysates with either of these antibodies and detect with the other.

[4] = target: T3, rC35; assay: Biacore affinity testing of MAb 163 (1:1 kinetic model); format: binding
Procedure: To measure affinity using Biacore, a CM5 chip surface was prepared by immobilizing Goat Anti-Human IgG Fc through amine coupling. The monoclonal human antibody MAb 163 was then captured by flow over the chip containing the Goat Anti-Human IgG. The rC35 was then serial diluted into two separate series to cover a wide range of concentration points and binding efficiencies, and then the C35 was allowed to flow over the chip containing bound MAb 163. The binding was recorded in a series of sensograms. The binding was evaluated using BIAevaluation software, where the Ka and Kd were calculated by fitting the curves and correcting for Mass Transfer.

[5] = system: C35-positive 21MT1-D cells; assay: Immunofluorescence staining (FMAT), C35-positive cells; format: cell-based, human; conditions: MAb163 at 3, 1, 0.3 or 0.1 μg/ml
[6] = system: C35-negative H16N2 cells; assay: Immunofluorescence staining (FMAT), C35-negative cells; format: cell-based, human; conditions: MAb163 at 3, 1, 0.3 or 0.1 μg/ml
[7] = target: T2, C35; assay: Western blot, tumor specific binding of MAb 163; design: endogenous in cells; host or cells: 21MT1-D human breast tumor cell line
[8] = target: T2, C35; assay: Immunoprecipitation of C35 from 21MT1-D cell lysates; format: binding; design: endogenous in cells; host or cells: 21MT1-D human breast tumor cell line; conditions: detected with rabbit anti-C35 polyclonal sera; IgG negative control did not
Procedure: The number “15” indicates the molecular weight marker at 15 kDalton. The number “163” indicates the mAb163 monoclonal antibody. “Neg IgG” indicates an IgG negative control antibody.
Briefly, 10 ml of MAb163 in CHO cell supernatant was buffer-exchanged into PBS and concentrated to 1 ml. Concentrated MAb 163 was added to protein A beads for greater than one hour. After washing, protein A/MAb163 was added to C35-positive 21MT1-D cell lysates for 2 hours. After washing the beads, the protein was eluted with reducing sample buffer at 100° C.
Immunoprecipitated samples were analyzed by Western blot using rabbit anti-C35 polyclonal sera. As shown in the left lane of FIG. 22, lysate from 100,000 21MT1-D cells was included on the Western blot as a control. The number “15” in FIG. 22 indicates a molecular weight marker at 15 kDalton.

Molecule | epitope specificity [1] | tumor growth, one antibody with paclitaxel [2] | competitive binding ELISA [3] | binding to recombinant C35 protein [3] | immunohistochemistry staining ([3]; formalin fixed, paraffin embedded) | KA ([4]; BIAevaluation, 1:1 kinetic model) | ka ([4]; MAb 163 captured on anti-human IgG Fc CM5 chip, rC35 in flow) | immunofluorescence staining [5] | immunofluorescence staining [6] | binding in Western blot, tumor cell lysate ([7]; 21MT1-D human breast tumor cell lysate, MAb163 4.4 ug/ml) | binding in Western blot, normal cell line ([7]; H16N2 normal immortalized human breast cell line lysate) | binding in Western blot, recombinant C35 ([7]; rC35 purified from E. coli, 100 ng/lane) | immunoprecipitation of C35 [8]
B1 | specific for an epitope within the C35 residues 48-104 | neither the 1F2 nor 1B3 administered individually with the chemotherapeutic agent paclitaxel was effective in inhibiting tumor growth | bind different epitopes of the C35 protein | specifically bind recombinant C35 protein in ELISA and Western Blot assays | specifically stain formalin fixed, paraffin embedded C35 positive tumors and cell lines | – | – | – | – | – | – | – | –
B2 | recognizes an epitope within amino acid residues 48 to 87 of C35; also recorded: specific for an epitope within amino acid residues 48 to 87 of C35 | – | – | – | – | 2.96e+08 M⁻¹ | 284000 M⁻¹ s⁻¹ | show dose-dependent immunofluorescence | do not show any immunofluorescence staining | binds native C35 monomer in tumor cell lysate | binding is absent in the normal cell line | binds the rC35 monomer (16 kD), dimer (˜32 kD), and larger aggregates | immunoprecipitated C35 protein
B3 | specific for an epitope within C35 residues 105-115 | neither the 1F2 nor 1B3 administered individually with the chemotherapeutic agent paclitaxel was effective in inhibiting tumor growth | bind different epitopes of the C35 protein | specifically bind recombinant C35 protein in ELISA and Western Blot assays | – | – | – | – | – | – | – | – | –
